According to patent US20160312212A1 (published 2016):
Where no end group is shown, it is not given here. The star is where a group is joined. Biotin = O=C1N[C@H]2[C@H](CS[C@H]2CCCCC(=O)*)N1

B1: peptide encoded by linear DNA template 300-53-C (cow antibody scaffold with RDPGRLIFQS and Strep-tag II) (designed binder)
chain: MGCTSVHQETKKYQSRDPGRLIFQSSYTYNYEHVDVWGCGSAWSHPQFEKGS

Key:
Thrombin [1] = target: T1, Thrombin (UniProt P00734 328-622); experiment: SPR (Biacore single cycle kinetics)
Thrombin [2] = target: T1, Thrombin; experiment: SPR (Biacore multiple cycle kinetics)

| Binder | Kd (Thrombin [1]) [nM] | Kd (Thrombin [2]) [nM] |
| --- | --- | --- |
| B1 | 0.96 | – |
| Biotin-GGGGSGGGGSRDPGRLIFQS [Biotin-GGGGSGGGGSRDPGRLIFQS] | – | 36.6 |
| Biotin-GCTSVHQETKKYQSRDPGRLIFQSSYTYNYEHVDVWGCG (designed binder, cysteine pairing not given here) [Biotin-GCTSVHQETKKYQSRDPGRLIFQSSYTYNYEHVDVWGCG] | – | 0.78 |
